Test results: paper PMC6952535

Molecular target: 6xHis-hSTAT3_(136-705) (human) (UniProt P40763)
Experiment: ITC

Chain of UniProt P40763 (P40763 136-705): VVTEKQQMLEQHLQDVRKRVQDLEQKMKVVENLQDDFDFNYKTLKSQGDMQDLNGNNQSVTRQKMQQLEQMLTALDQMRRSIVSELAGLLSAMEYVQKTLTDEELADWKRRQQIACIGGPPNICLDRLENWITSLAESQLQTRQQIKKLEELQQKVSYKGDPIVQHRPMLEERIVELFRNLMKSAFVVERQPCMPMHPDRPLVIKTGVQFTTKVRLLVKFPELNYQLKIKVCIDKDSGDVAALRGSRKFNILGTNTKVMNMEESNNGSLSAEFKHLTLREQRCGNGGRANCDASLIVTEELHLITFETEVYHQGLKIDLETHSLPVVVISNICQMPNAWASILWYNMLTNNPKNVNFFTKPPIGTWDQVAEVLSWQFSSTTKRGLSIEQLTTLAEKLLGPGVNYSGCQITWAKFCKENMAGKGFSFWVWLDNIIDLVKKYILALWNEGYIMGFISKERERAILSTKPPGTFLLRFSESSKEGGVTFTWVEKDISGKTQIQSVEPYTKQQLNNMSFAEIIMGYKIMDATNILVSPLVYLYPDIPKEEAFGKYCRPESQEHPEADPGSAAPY

| Substance | Kd |
| --- | --- |
| gp130 phosphopeptide containing YxxQ (phosphorylated at Y767) | 2290 nM |
| SarA phospho-peptide (ten residues spanning the YxxQ motif, phosphorylated at Y167) | 143 nM |
